This passage reports Kd results from publication PMC13284460, “HPV16 E2 protein possesses intrinsic helicase activity and sterically hinders E1 function through direct interaction”.

In one data set the target is T1, HPV16 E1 (Human papillomavirus type 16, UniProt P03114 1-649).
T1 sequence: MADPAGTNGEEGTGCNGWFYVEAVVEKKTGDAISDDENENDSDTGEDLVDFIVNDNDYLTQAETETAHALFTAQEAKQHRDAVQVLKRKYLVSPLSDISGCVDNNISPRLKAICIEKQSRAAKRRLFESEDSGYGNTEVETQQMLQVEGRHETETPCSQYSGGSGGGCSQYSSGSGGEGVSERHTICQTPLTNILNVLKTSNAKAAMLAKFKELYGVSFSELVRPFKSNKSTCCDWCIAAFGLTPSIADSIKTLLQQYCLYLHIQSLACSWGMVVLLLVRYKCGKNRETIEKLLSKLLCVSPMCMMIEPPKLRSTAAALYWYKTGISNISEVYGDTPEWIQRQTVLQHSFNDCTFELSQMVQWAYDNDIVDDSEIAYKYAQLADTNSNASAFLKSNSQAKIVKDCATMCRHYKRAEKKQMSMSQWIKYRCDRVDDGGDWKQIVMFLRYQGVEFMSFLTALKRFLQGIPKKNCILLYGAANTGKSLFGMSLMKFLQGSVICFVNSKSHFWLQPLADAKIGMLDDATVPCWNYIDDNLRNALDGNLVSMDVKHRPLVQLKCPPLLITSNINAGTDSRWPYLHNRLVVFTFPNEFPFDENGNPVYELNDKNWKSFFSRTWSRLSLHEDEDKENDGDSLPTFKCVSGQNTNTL
Nature of the data set: fluorescence polarization; 5 mM Mg2+; FP: 20 mM Tris-HCl pH 7.0, 10 mM NaCl, 0.1 mg/ml BSA, 5 mM MgCl2, 1 mM DTT, room temperature, 60 min; 50 nM probe, 0-200 nM protein. As to conditions: protein: recombinant; tags: His (pET28a, Ni-NTA); Myc (co-IP); chain copies: 6; label: 5' Cy3; single strand. (In general: Polarisation of emitted light reports the rotation of a fluorescent probe.)

Data set [1] concerns the target T2, HPV16 E2 (Human papillomavirus type 16, UniProt P03120 1-365). The description is as above. As to conditions: protein: recombinant; tags: His (pET28a, Ni-NTA); HA (blots); chain copies: 2; label: 5' Cy3; single strand.
Data set [2] addresses T2, HPV16 E2. Nature of the data set: fluorescence polarization; 5 mM Mg2+; separate experiment alongside E1; FP: 20 mM Tris-HCl pH 7.0, 10 mM NaCl, 0.1 mg/ml BSA, 5 mM MgCl2, 1 mM DTT, room temperature, 60 min; 50 nM probe, 0-200 nM protein. As to conditions: protein: recombinant; tags: His (pET28a, Ni-NTA); HA (blots); chain copies: 2; label: 5' Cy3; single strand.

T2 sequence (P03120 whole entry): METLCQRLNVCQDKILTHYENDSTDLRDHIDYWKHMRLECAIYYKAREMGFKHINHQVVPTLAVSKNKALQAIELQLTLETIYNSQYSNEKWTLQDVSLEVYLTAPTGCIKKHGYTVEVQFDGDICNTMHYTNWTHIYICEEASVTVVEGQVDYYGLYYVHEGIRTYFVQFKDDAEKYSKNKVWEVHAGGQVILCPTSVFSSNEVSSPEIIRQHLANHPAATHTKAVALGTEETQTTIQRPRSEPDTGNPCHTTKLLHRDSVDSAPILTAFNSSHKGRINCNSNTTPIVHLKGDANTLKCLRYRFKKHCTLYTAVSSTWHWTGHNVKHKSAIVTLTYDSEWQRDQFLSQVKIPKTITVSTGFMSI

As a reminder, the Kd is the constant that tells how readily two partners part at equilibrium. In the case of GCGTCTTTACGGGTGCTTAAAAACAAAAACAAAAACAAAA (ssDNA) [Cy3-labeled 40-nt ssDNA (FP probe)], the Kd with HPV16 E1 amounted to 172 ± 88 nM; with HPV16 E2 [1] it was 24 ± 8 nM; with HPV16 E2 [2], 28 ± 10 nM.
